Literature values as cited in paper PMC2799686.

Target: DnaK (Escherichia coli) (UniProt P0A6Y8)
Assay: competition

Sequence of pyrrhocoricin (P37362 whole entry): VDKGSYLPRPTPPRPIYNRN
Sequence of DnaK (Escherichia coli) (P0A6Y8 2-638): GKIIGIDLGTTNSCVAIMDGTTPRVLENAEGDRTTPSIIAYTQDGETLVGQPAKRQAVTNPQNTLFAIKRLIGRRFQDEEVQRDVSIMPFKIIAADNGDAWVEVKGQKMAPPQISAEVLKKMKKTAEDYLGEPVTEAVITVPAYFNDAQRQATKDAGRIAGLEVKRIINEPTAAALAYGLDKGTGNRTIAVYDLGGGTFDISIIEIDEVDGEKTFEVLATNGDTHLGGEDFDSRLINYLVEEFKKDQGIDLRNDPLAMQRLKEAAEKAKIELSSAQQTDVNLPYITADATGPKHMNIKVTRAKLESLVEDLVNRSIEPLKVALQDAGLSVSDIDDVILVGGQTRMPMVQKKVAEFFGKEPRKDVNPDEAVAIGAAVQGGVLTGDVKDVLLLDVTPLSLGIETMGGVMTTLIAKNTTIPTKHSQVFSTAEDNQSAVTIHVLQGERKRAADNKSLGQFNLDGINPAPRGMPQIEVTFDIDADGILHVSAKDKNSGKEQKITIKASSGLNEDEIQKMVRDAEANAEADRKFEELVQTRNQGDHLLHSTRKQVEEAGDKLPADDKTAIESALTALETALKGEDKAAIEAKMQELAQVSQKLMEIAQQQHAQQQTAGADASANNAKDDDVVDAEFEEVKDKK

pyrrhocoricin (from UniProt P37362)
Kd: 50 µM
